The source of these data is paper PMC8298264, “Function of cofactor Akirin2 in the regulation of gene expression in model human neutrophil-like HL60 cells” (Bioscience Reports, 2021).

The chains are these.
B1: sp¦O43592¦XPOT_HUMAN (protein, UniProt O43592 1-962, looked up)
Exportin-T: MDEQALLGLNPNADSDFRQRALAYFEQLKISPDAWQVCAEALAQRTYSDDHVKFFCFQVLEHQVKYKYSELTTVQQQLIRETLISWLQAQMLNPQPEKTFIRNKAAQVFALLFVTEYLTKWPKFFFDILSVVDLNPRGVDLYLRILMAIDSELVDRDVVHTSEEARRNTLIKDTMREQCIPNLVESWYQILQNYQFTNSEVTCQCLEVVGAYVSWIDLSLIANDRFINMLLGHMSIEVLREEACDCLFEVVNKGMDPVDKMKLVESLCQVLQSAGFFSIDQEEDVDFLARFSKLVNGMGQSLIVSWSKLIKNGDIKNAQEALQAIETKVALMLQLLIHEDDDISSNIIGFCYDYLHILKQLTVLSDQQKANVEAIMLAVMKKLTYDEEYNFENEGEDEAMFVEYRKQLKLLLDRLAQVSPELLLASVRRVFSSTLQNWQTTRFMEVEVAIRLLYMLAEALPVSHGAHFSGDVSKASALQDMMRTLVTSGVSSYQHTSVTLEFFETVVRYEKFFTVEPQHIPCVLMAFLDHRGLRHSSAKVRSRTAYLFSRFVKSLNKQMNPFIEDILNRIQDLLELSPPENGHQSLLSSDDQLFIYETAGVLIVNSEYPAERKQALMRNLLTPLMEKFKILLEKLMLAQDEERQASLADCLNHAVGFASRTSKAFSNKQTVKQCGCSEVYLDCLQTFLPALSCPLQKDILRSGVRTFLHRMIICLEEEVLPFIPSASEHMLKDCEAKDLQEFIPLINQITAKFKIQVSPFLQQMFMPLLHAIFEVLLRPAEENDQSAALEKQMLRRSYFAFLQTVTGSGMSEVIANQGAENVERVLVTVIQGAVEYPDPIAQKTCFIILSKLVELWGGKDGPVGFADFVYKHIVPACFLAPLKQTFDLADAQTVLALSECAVTLKTIHLKRGPECVQYLQQEYLPSLQVAPEIIQEFCQALQQPDAKVFKNYLKVFFQRAKP
B2: sp¦Q9UL25¦RAB21_HUMAN (protein, UniProt Q9UL25 2-222, looked up)
Ras-related protein Rab-21: AAAGGGGGGAAAAGRAYSFKVVLLGEGCVGKTSLVLRYCENKFNDKHITTLQASFLTKKLNIGGKRVNLAIWDTAGQERFHALGPIYYRDSNGAILVYDITDEDSFQKVKNWVKELRKMLGNEICLCIVGNKIDLEKERHVSIQEAESYAESVGAKHYHTSAKQNKGIEELFLDLCKRMIETAQVDERAKGNGSSQPGTARRGVQIIDDEPQAQTSGGGCC
B3: sp¦P04899¦GNAI2_HUMAN (protein, UniProt P04899 2-355, looked up)
Guanine nucleotide-binding …: GCTVSAEDKAAAERSKMIDKNLREDGEKAAREVKLLLLGAGESGKSTIVKQMKIIHEDGYSEEECRQYRAVVYSNTIQSIMAIVKAMGNLQIDFADPSRADDARQLFALSCTAEEQGVLPDDLSGVIRRLWADHGVQACFGRSREYQLNDSAAYYLNDLERIAQSDYIPTQQDVLRTRVKTTGIVETHFTFKDLHFKMFDVGGQRSERKKWIHCFEGVTAIIFCVALSAYDLVLAEDEEMNRMHESMKLFDSICNNKWFTDTSIILFLNKKDLFEEKITHSPLTICFPEYTGANKYDEAASYIQSKFEDLNKRKDTKEIYTHFTCATDTKNVQFVFDAVTDVIIKNNLKDCGLF
B4: sp¦Q8N5K1¦CISD2_HUMAN (protein, UniProt Q8N5K1 2-135, looked up)
CDGSH iron-sulfur …: VLESVARIVKVQLPAYLKRLPVPESITGFARLTVSEWLRLLPFLGVLALLGYLAVRPFLPKKKQQKDSLINLKIQKENPKVVNEINIEDLCLTKAAYCRCWRSKTFPACDGSHNKHNELTGDNVGPLILKKKEV
B5: sp¦Q13464¦ROCK1_HUMAN (protein, UniProt Q13464 2-1354, looked up)
Rho-associated protein kinase …: STGDSFETRFEKMDNLLRDPKSEVNSDCLLDGLDALVYDLDFPALRKNKNIDNFLSRYKDTINKIRDLRMKAEDYEVVKVIGRGAFGEVQLVRHKSTRKVYAMKLLSKFEMIKRSDSAFFWEERDIMAFANSPWVVQLFYAFQDDRYLYMVMEYMPGGDLVNLMSNYDVPEKWARFYTAEVVLALDAIHSMGFIHRDVKPDNMLLDKSGHLKLADFGTCMKMNKEGMVRCDTAVGTPDYISPEVLKSQGGDGYYGRECDWWSVGVFLYEMLVGDTPFYADSLVGTYSKIMNHKNSLTFPDDNDISKEAKNLICAFLTDREVRLGRNGVEEIKRHLFFKNDQWAWETLRDTVAPVVPDLSSDIDTSNFDDLEEDKGEEETFPIPKAFVGNQLPFVGFTYYSNRRYLSSANPNDNRTSSNADKSLQESLQKTIYKLEEQLHNEMQLKDEMEQKCRTSNIKLDKIMKELDEEGNQRRNLESTVSQIEKEKMLLQHRINEYQRKAEQENEKRRNVENEVSTLKDQLEDLKKVSQNSQLANEKLSQLQKQLEEANDLLRTESDTAVRLRKSHTEMSKSISQLESLNRELQERNRILENSKSQTDKDYYQLQAILEAERRDRGHDSEMIGDLQARITSLQEEVKHLKHNLEKVEGERKEAQDMLNHSEKEKNNLEIDLNYKLKSLQQRLEQEVNEHKVTKARLTDKHQSIEEAKSVAMCEMEKKLKEEREAREKAENRVVQIEKQCSMLDVDLKQSQQKLEHLTGNKERMEDEVKNLTLQLEQESNKRLLLQNELKTQAFEADNLKGLEKQMKQEINTLLEAKRLLEFELAQLTKQYRGNEGQMRELQDQLEAEQYFSTLYKTQVKELKEEIEEKNRENLKKIQELQNEKETLATQLDLAETKAESEQLARGLLEEQYFELTQESKKAASRNRQEITDKDHTVSRLEEANSMLTKDIEILRRENEELTEKMKKAEEEYKLEKEEEISNLKAAFEKNINTERTLKTQAVNKLAEIMNRKDFKIDRKKANTQDLRKKEKENRKLQLELNQEREKFNQMVVKHQKELNDMQAQLVEECAHRNELQMQLASKESDIEQLRAKLLDLSDSTSVASFPSADETDGNLPESRIEGWLSVPNRGNIKRYGWKKQYVVVSSKKILFYNDEQDKEQSNPSMVLDIDKLFHVRPVTQGDVYRAETEEIPKIFQILYANEGECRKDVEMEPVQQAEKTNFQNHKGHEFIPTLYHFPANCDACAKPLWHVFKPPPALECRRCHVKCHRDHLDKKEDLICPCKVSYDVTSARDMLLLACSQDEQKKWVTHLVKKIPKNPPSGFVRASPRTLSTRSTANQSFRKVVKNTSGKTS

This test deals with human HL60 cells. The test is described as follows: SWATH-MS proteomics, differential protein representation, akirin2 KO vs WT HL60 cells. The class given is cell-based. Conditions: KO vs WT; akirin2 KO vs WT HL60 cells; sheet "Under-represented in KO". Put shortly:
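Differential representation compares akirin2 KO with WT HL60 across three biological replicates, 5 µg digest each, acquired by data-independent SWATH on a 120-min gradient. Library built from combined IDA runs searched with Paragon; proteins accepted at 1% FDR, with total-area-sum normalization.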
Take B1: the “Fold Change” value came to 0.6107 and the “Log (Fold Change)” value is -0.2142.
As to B2, the “Fold Change” value is on record as 0.6117 and the “Log (Fold Change)” value was -0.2135.
Regarding B3, the “Fold Change” value was 0.61 and the “Log (Fold Change)” value is recorded as -0.2146.
On the same counts, the results for B4 are 0.6126 and -0.2128.
The matching figures for B5: 0.6099 and -0.2148.
